Data from PMC12216326.

Experiments:
[1] = target: GST-DDX39B (residues 1-428) (human) (UniProt Q13838)
[2] = target: GST-DDX39B (residues 1-428) (human) (UniProt Q13838); remark: listed apart in the source

UniProt Q13838, sequence (Q13838 whole entry, the tested form may be a part): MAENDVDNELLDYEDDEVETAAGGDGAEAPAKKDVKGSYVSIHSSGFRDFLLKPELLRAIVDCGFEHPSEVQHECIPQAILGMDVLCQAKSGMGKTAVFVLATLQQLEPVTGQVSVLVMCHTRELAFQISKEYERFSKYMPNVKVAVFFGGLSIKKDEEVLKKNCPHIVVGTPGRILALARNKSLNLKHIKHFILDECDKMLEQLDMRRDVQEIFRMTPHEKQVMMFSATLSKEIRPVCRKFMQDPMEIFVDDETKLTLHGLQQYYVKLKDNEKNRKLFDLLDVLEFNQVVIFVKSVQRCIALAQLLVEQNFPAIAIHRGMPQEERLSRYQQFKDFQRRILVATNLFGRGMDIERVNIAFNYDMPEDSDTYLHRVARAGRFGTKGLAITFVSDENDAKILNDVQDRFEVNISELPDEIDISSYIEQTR

| Substance | ATPase activity of DDX39B, stimulation by TREX-2.1-mut against wild-type TREX-2.1 (fold reduction) [1] | ATPase activity of DDX39B (NADH enzyme-coupled assay with poly(A) RNA), stimulation by TREX-2.1 [2] [fold] |
| --- | --- | --- |
| TREX-2.1-mut (LENG8 residues 490-800 with 563RLTCAP568 replaced by GGGG/PCID2/DSS1) (from UniProt Q96PV6-2 490-800; Q5JVF3 1-399; P60896 1-70) (complex) | 4 | – |
| TREX-2.1 complex (LENG8 residues 490-800/PCID2/DSS1) (from UniProt Q96PV6-2 490-800; Q5JVF3 1-399; P60896 1-70) | – | 80 |
